# Experimental data from the RNAGym collection of RNA variant scans (doi:10.7554/elife.80360).
# B1: HDV Ribozyme (parent)
# chain: GGCCGGCAUGGUCCCAGCCUCCUCGCUGGCGCCGGCUGGGCAACAUUCCGAGGGGACCGUCCCCUCGGUAAUGGCGAAUGGGACCCA
# Variants of: B1
# Test: self-cleavage, relative activity (ratio to wild type); higher = more cleavage; co-transcriptional
row,Variant,self-cleavage
1,C21U A87G,0.165
2,C22G U37C,0.136
3,C22G U37G,0.0831
4,C21U G34A,0.0225
5,C22G A45C,0.0489
6,C22G A45G,0
7,C22A G74C,0.146
8,C22A G74U,0.0213
9,C22G U72A,0.196
10,C22G U72G,0.0554
11,C21U A56C,0.289
12,C21G U69C,0.104
13,C22U A77G,0.369
14,C22U A77C,0.141
15,C22A A78C,0.0692
16,C22G A51C,0.116
17,C22G A51G,0.104
18,C22A C48U,0.433
19,C22A C48A,0.201
20,C22G G34C,0.0811
21,C22G C44G,0.0437
22,C22G C44U,0.0361
23,C21U C61G,0.277
24,C21U C61U,0.319

row,Variant,self-cleavage
1,C22A C85A,0.378
2,C22A C85G,0.219
3,C21U C62A,0.214
4,C21U G50A,0.253
5,C21U G50C,0.115
6,C21U G50U,0.141
7,C22A C41A,0.475
8,C21U U37G,0.0875
9,C22A C57U,0.343
10,C22A C57G,0.543
11,C21U C24U,0.0287
12,C22G U46C,0.116
13,C22A A51U,0.332
14,C21U C84U,0.0923
15,C21U C84G,0.122
16,C21U C84A,0.0755
17,C21U G67C,0.205
18,C22A G28U,0.106
19,C22A G28C,0
20,C22A G28A,0.148
21,C22G G82A,0.0723
22,C22G G82U,0.0652
23,C21U C30U,0.0755
24,C21U C30G,0.107

row,Variant,self-cleavage
1,C21G G81C,0.0504
2,C21G G81A,0.0604
3,C21G G81U,0.18
4,C22A C64A,0.107
5,C22A C64U,0.32
6,C22A C64G,0.302
7,C22G G67C,0.132
8,C21U G38U,0.135
9,C21U G38A,0.177
10,C21U G38C,0.0923
11,C22G A70G,0.185
12,C22G A70U,0.173
13,C21U C32A,0.0674
14,C21U C32G,0
15,C21U A83G,0.124
16,C21U A83U,0.162
17,C21U G53A,0.116
18,C21U G53C,0.188
19,C22A G25U,0.0755
20,C22A G25A,0.0369
21,C21G G74C,0.104
22,C22G G39C,0.0554
23,C22A G76A,0.212
24,C22A G76C,0.447

row,Variant,self-cleavage
1,C22A G76U,0.554
2,C22U A51U,0.708
3,C21U A71C,0.293
4,C22A G59A,0.359
5,C22A G59U,0.377
6,C21U C75A,0.0739
7,C21U C75U,0.0248
8,C21U C75G,0.151
9,C22G G81U,0.089
10,C22G G81C,0
11,C21U G31C,0.0723
12,C21U G31A,0.142
13,C22G C58A,0
14,C22G C58U,0.172
15,C22G C58G,0
16,C22A G67A,0.185
17,C22G A43C,0.0811
18,C22G A43U,0.115
19,C22G A43G,0
20,C22A A77U,0.101
21,C22A A77C,0.0378
22,C21U U60A,0.237
23,C21U U60C,0.219
24,C21U U79C,0.0573

row,Variant,self-cleavage
1,C21U U79G,0.0426
2,C21U,0.251
3,C22G G28C,0
4,C21U C85A,0.366
5,C21U C64A,0.185
6,C22G C49A,0.131
7,C22A A43C,0.111
8,C22G A83U,0.0462
9,C22G A87U,0.141
10,C22G A87C,0.0866
11,C21U C86U,0.282
12,C22A G81U,0.0536
13,C21U G74C,0.158
14,C21U G74A,0.149
15,C21U G74U,0.0875
16,C22A G38C,0.0346
17,C21U G54U,0.232
18,C21U G54A,0.159
19,C22A U37A,0.0554
20,C22A G80U,0.0408
21,C22A G80C,0.229
22,C22A U79C,0.18
23,C22A U79A,0.131
24,C22A C62A,0.339

row,Variant,self-cleavage
1,C22A C62U,0.387
2,C22G G55U,0.0382
3,C22G G55A,0.0723
4,C21U C36A,0.0923
5,C21G U23G,0.0755
6,C21G U23A,0.0536
7,C21G U23C,0.0615
8,C22G G74A,0.0241
9,C22G G74U,0.0841
10,C22G G74C,0
11,C22A G40C,0.0282
12,C22G C57A,0.0652
13,C22G C57G,0.219
14,C22G C57U,0.089
15,C22G G68U,0.0583
16,C22G G59U,0.0817
17,C22G G52C,0.0652
18,C22A U60C,0.424
19,C21U C26U,0.646
20,C22G A78G,0.141
21,C22G A78C,0.131
22,C21U C58A,0.136
23,C21U C58U,0.203
24,C21U G39A,0.993

row,Variant,self-cleavage
1,C21U G39U,0.604
2,C22G C26A,0.156
3,C22G C85A,0
4,C22G C85U,0.0845
5,C22U,0.736
6,C22G,0.0832
7,C22A,0.306
8,C22A C49G,0.143
9,C21U A78G,0.155
10,C21G U37G,0.166
11,C22G U60G,0
12,C22G U60A,0.141
13,C22G G38A,0.0231
14,C22G G38C,0.391
15,C21U G55U,0.17
16,C21U G76C,0.347
17,C22U A43C,0.0282
18,C21U G59C,0.292
19,C21U G59U,0.288
20,C22A U47C,0
21,C22A U47A,0.208
22,C22G A56U,0.133
23,C22G A56C,0
